Results taken from patent publication US20240084009A1 (HARPOON THERAPEUTICS, published 2024).
Substitutions are numbered along the chain they refer to. One block for each binder: values may come before it.

Legend:
biotinylated hu-CD3ε = molecular target: T1, biotinylated hu-CD3ε (human, UniProt P07766 23-126, limits assumed, biotinylated (site not stated)); experiment: kinetic Kd determination of the expressed scFv, method not named
T1 construct: The construct is not described; also called biotin-CD3ε; human CD3ε
T1 sequence (P07766 23-126 limits assumed): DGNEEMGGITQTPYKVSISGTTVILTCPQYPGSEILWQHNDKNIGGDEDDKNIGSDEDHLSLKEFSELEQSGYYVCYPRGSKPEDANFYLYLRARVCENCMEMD

cyno CD3e = molecular target: T2, cyno CD3e (Macaca fascicularis (cynomolgus monkey), UniProt Q95LI5); experiment: as above
T2 construct: not described; also called cynomolgus CD3ε; cynomolgus CD3
T2 sequence (CD3 epsilon, looked up): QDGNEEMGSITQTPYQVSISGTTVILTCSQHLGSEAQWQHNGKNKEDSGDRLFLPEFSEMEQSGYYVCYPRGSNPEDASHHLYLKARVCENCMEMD

B1: Anti-CD3, clone 2G5 (scFv)
scFv: EVQLVESGGGLVQPGGSLKLSCAASGFTFNKYALNWVRQAPGKGLEWVARIRSKYNNYATEYADSVKDRFTISRDDSKNTAYLQMNNLKTEDTAVYYCVRHGNFGNSPISYWAYWGQGTLVTVSSGGGGSGGGGSGGGGSQTVVTQEPSLTVSPGGTVTLTCGSSTGAVTSGNYPNWVQQKPGQAPRGLIGGTNFLAPGTPERFSGSLLGGKAALTLSGVQPEDEAEYYCVLWYSNRWAFGGGTKLTVLHHHHHH
notes: Expressed in Expi293 from the pcDNA3.4 His6 vector
Kd (biotinylated hu-CD3ε): 117 nM
koff (biotinylated hu-CD3ε): 0.115 s⁻¹
kon (biotinylated hu-CD3ε): 994000 M⁻¹ s⁻¹
Kd (cyno CD3e): 115 nM
koff (cyno CD3e): 0.111 s⁻¹
kon (cyno CD3e): 964000 M⁻¹ s⁻¹

B4: Anti-CD3, clone 3F2 (scFv)
scFv: B1 scFv with F29Y, L34M, E61Y, S65E, T166K, N194K, F195E, E202A, V231T, A239V
notes: as for B1
Kd (biotinylated hu-CD3ε): 8 nM
koff (biotinylated hu-CD3ε): 0.00502 s⁻¹
kon (biotinylated hu-CD3ε): 704000 M⁻¹ s⁻¹
Kd (cyno CD3e): 6.6 nM
koff (cyno CD3e): 0.00438 s⁻¹
kon (cyno CD3e): 712000 M⁻¹ s⁻¹

Continued, values first:

Kd (biotinylated hu-CD3ε): 49.8 nM
koff (biotinylated hu-CD3ε): 0.026 s⁻¹
kon (biotinylated hu-CD3ε): 522000 M⁻¹ s⁻¹
Kd (cyno CD3e): 46.8 nM
koff (cyno CD3e): 0.0238 s⁻¹
kon (cyno CD3e): 508000 M⁻¹ s⁻¹
B2: Anti-CD3, clone 10E4 (scFv)
scFv: EVQLVESGGGLVQPGGSLKLSCAASGFTFNKYPMNWVRQAPGKGLEWVARIRSKYNNYATYYADSVKDRFTISRDDSKNTAYLQMNNLKNEDTAVYYCVRHGNFNNSYISYWAYWGQGTLVTVSSGGGGSGGGGSGGGGSQTVVTQEPSLTVSPGGTVTLTCGSSTGAVTKGNYPNWVQQKPGQAPRGLIGGTKMLAPGTPARFSGSLLGGKAALTLSGVQPEDEAEYYCALWYSNRWVFGGGTKLTVLHHHHHH
notes: as for B1

Kd (biotinylated hu-CD3ε): 4.7 nM
koff (biotinylated hu-CD3ε): 0.00248 s⁻¹
kon (biotinylated hu-CD3ε): 522000 M⁻¹ s⁻¹
Kd (cyno CD3e): 4.9 nM
koff (cyno CD3e): 0.00222 s⁻¹
kon (cyno CD3e): 456000 M⁻¹ s⁻¹
B3: Anti-CD3, clone 6A2 (scFv)
scFv: EVQLVESGGGLVQPGGSLKLSCAASGFMFNKYAMNWVRQAPGKGLEWVARIRSKSNNYATYYADSVKDRFTISRDDSKNTAYLQMNNLKTEDTAVYYCVRHGNFGNSYISYWATWGQGTLVTVSSGGGGSGGGGSGGGGSQTVVTQEPSLTVSPGGTVTLTCGSSFGAVTSGNYPNWVQQKPGQAPRGLIGGTKLLAPGTPARFSGSLLGGKAALTLSGVQPEDEAEYYCVLWYSNSWVFGGGTKLTVLHHHHHH
notes: as for B1
